Laboratory results: patent US8466270B2, “Methods for using artificial polynucleotides and compositions thereof to reduce transgene silencing” (Monsanto Technology LLC, priority 2002, dated 2013)

Tests used:
[1] = test system: transgenic soybean plants; test: CP4EPSPS enzyme level in transgenic soybean plants; format: in vivo
Procedure: Constructs containing the artificial CP4EPSPS polynucleotides, CP4EPSPS_AT and CP4EPSPS_ZM are evaluated in soybean (Table 22). The plasmid constructs all contain the P-FMV promoter to drive expression of the new CP4EPSPS polynucleotides and are compared to the P-FMV/CP4EPSPS_Syn contained in pMON20999. About 25 to 30 transgenic soybean plants are produced for each construct. The transformation efficiency and CP4EPSPS enzyme, levels are measured.

Wheat plants = test: CP4EPSPS enzyme expression in wheat leaves by ELISA; format: in vivo
Text: Wheat plants transformed with the new CP4EPSPS polynucleotides are compared for transformation efficiency and CP4EPSPS enzyme expression determined by ELISA (Table 25). […] The average expression of CP4EPSPS in leaves from wheat plants containing the CP4EPSPS_ZM polynucleotide is about 64% of that found in glyphosate resistant wheat that contains a double cassette construct, pMON30139: P-e35S/1-Hsp70/CP4EPSPS_Nat and P-OsAct1/I-OsAct1/CP4EPSPS_Nat (WO/0022704).

CP4EPSPS polynucleotide = test: PCR detection of artificial CP4EPSPS polynucleotides in transgenic plants; set-up: species or system corn; settings: amplicon size obtained with the primer pair specific for the gene; second figure in brackets
Text: A DNA detection method (polymerase chain reaction, PCR) is designed to detect the artificial CP4EPSPS polynucleotides in transgenic plants. The unique sets of DNA primers shown in Table 26 are designed to amplify a specific CP4EPSPS polynucleotide and to provide distinctly sized amplicons. The amplicons differ sufficiently in polynucleotide length among the various CP4EPSPS polynucleotides to make easy separation of the amplicons by standard agarose gel electrophoresis. The presence of more than one of the artificial polynucleotides can be detected in a plant by using a multiplex PCR method.
DNA primer pairs (Table 26) are used to produce an amplicon diagnostic for a specified CP4EPSPS polynucleotide contained in a transgenic plant. These primer pairs include, but are not limited to SEQ ID NO:24 and SEQ ID NO:25 for the CP4EPSPS_AT polynucleotide; SEQ ID NO:26 and SEQ ID NO:27 for the CP4EPSPS_ZM; SEQ ID NO:28 and SEQ ID NO:29 for CP4EPSPS_Nat and SEQ ID NO:30 and SEQ ID NO:31 CP4EPSPS_Syn polynucleotide molecule. In addition to these primer pairs, any primer pair derived from SEQ ID NO:17 or SEQ ID NO:18 that when used in a DNA amplification reaction produces a DNA amplicon diagnostic for the respective CP4EPSPS polynucleotide is an aspect of the present invention. […]

transgenic cotton plants [2] = test: Cotton transformation (transformation efficiency, insert number); format: cell-based; settings: relative to pMON20999
Procedure: (§1) Three plasmid constructs are evaluated in transgenic cotton plants (Table 21). The control construct (pMON20999) contains P-FMV/CP4EPSPS_Syn this expression cassette is contained in the commercially available glyphosate tolerant cotton line 1445 (Roundup Ready® cotton, Monsanto Co., St. Louis, Mo.). The plasmid constructs, pMON59313 and pMON59396 containing the CP4EPSPS_AT and CP4EPSPS_ZM polynucleotides, respectively, are assayed for transformation efficiency and CP4EPSPS enzyme levels relative to the commercial glyphosate tolerant expression cassette. About fifty transgenic cotton lines are evaluated for each construct.

transgenic cotton plants [3] = test: CP4EPSPS ELISA, enzyme level in R0 cotton lines; format: in vivo; settings: relative to pMON20999 expression cassette
Procedure: as §1

Molecule | expression level of CP4EPSPS protein (in words) [1] | CP4EPSPS enzyme expression relative to CP4EPSPS_AT (Wheat plants; wheat) | CP4 Exp. (%) CP4EPSPS expression (Wheat plants; wheat leaves, relative to pMON30139 double cassette wheat, ELISA) | PCR product (bps) (CP4EPSPS polynucleotide) | percentage of plants with a single insert (transgenic cotton plants [2]) | expression level of the CP4EPSPS enzyme (in words) (transgenic cotton plants [3])
CP4EPSPS_ZM: Artificial polynucleotide encoding the CP4EPSPS protein using the Zea mays codon usage table (nucleic acid, listed as Agrobacterium tumefaciens) DNA: ATGCTACACGGTGCAAGCAGCCGGCCGGCAACCGCTCGCAAATCTTCCGGCCTTTCGGGAACGGTCAGGATTCCGGGCGATAAGTCCATATCCCACCGGTCGTTCATGTTCGGCGGTCTTGCCAGCGGTGAGACGCGCATCACGGGCCTGCTTGAAGGTGAGGACGTGATCAATACCGGGAAGGCCATGCAGGCTATGGGAGCGCGTATCCGCAAGGAAGGTGACACATGGATCATTGACGGCGTTGGGAATGGCGGTCTGCTCGCCCCTGAGGCCCCTCTCGACTTCGGCAATGCGGCGACGGGCTGCAGGCTCACTATGGGACTGGTCGGGGTGTACGACTTCGATAGCACGTTCATCGGAGACGCCTCGCTCACAAAGCGCCCAATGGGCCGCGTTCTGAACCCGTTGCGCGAGATGGGCGTACAGGTCAAATCCGAGGATGGTGACCGTTTGCCCGTTACGCTGCGCGGGCCGAAGACGCCTACCCCGATTACCTACCGCGTGCCAATGGCATCCGCCCAGGTCAAGTCAGCCGTGCTCCTCGCCGGACTGAACACTCCGGGCATCACCACGGTGATCGAGCCCATCATGACCAGGGATCATACCGAAAAGATGCTTCAGGGGTTTGGCGCCAACCTGACGGTCGAGACGGACGCTGACGGCGTCAGGACCATCCGCCTTGAGGGCAGGGGTAAACTGACTGGCCAAGTCATCGATGTTCCGGGAGACCCGTCGTCCACGGCCTTCCCGTTGGTTGCGGCGCTGCTCGTGCCGGGGAGTGACGTGACCATCCTGAACGTCCTCATGAACCCGACCAGGACCGGCCTGATCCTCACGCTTCAGGAGATGGGAGCCGACATCGAGGTGATCAACCCGCGCCTGGCAGGCGGTGAAGACGTTGCGGATCTGCGCGTGCGCTCCTCTACCCTGAAGGGCGTGACGGTCCCGGAAGATCGCGCGCCGTCCATGATAGACGAGTATCCTATTCTGGCCGTCGCCGCTGCGTTCGCCGAAGGGGCCACGGTCATGAACGGTCTTGAGGAACTCCGCGTGAAGGAATCGGATCGCCTGTCGGCGGTGGCCAATGGCCTGAAGCTCAACGGTGTTGACTGCGACGAGGGTGAGACCTCACTCGTGGTCCGTGGCCGGCCTGATGGCAAGGGCCTCGGCAACGCCAGTGGAGCGGCCGTCGCCACGCACCTCGATCATCGCATCGCGATGTCCTTCTTGGTGATGGGTCTCGTCTCAGAGAACCCGGTGACCGTCGATGACGCCACGATGATAGCGACGAGCTTCCCAGAGTTCATGGATCTGATGGCGGGCCTCGGGGCCAAGATCGAACTGTCTGACACGAAGGCCGCTTGA | surprisingly high expression level | at least seven times higher | about 64% | 595 (600) bps |  | 
CP4EPSPS_AT: Artificial polynucleotide encoding the CP4EPSPS protein using the Arabidopsis codon usage table (nucleic acid, listed as Agrobacterium tumefaciens) DNA: ATGCTTCATGGAGCTTCATCTAGGCCAGCTACTGCCAGGAAGTCTAGCGGGCTCAGTGGCACCGTGCGCATCCCTGGCGATAAAAGTATTTCACACAGGAGCTTCATGTTCGGAGGACTTGCTAGTGGAGAGACGAGAATCACTGGTTTGCTTGAGGGCGAAGATGTTATCAACACCGGTAAGGCGATGCAAGCAATGGGTGCCAGAATCCGAAAAGAGGGCGATACGTGGATCATCGACGGTGTTGGTAACGGAGGATTGCTCGCTCCCGAAGCGCCACTTGACTTTGGGAACGCAGCTACGGGGTGCCGTCTTACTATGGGACTGGTAGGCGTGTATGACTTTGACTCTACCTTCATCGGTGACGCGAGCCTCACTAAGAGACCAATGGGACGAGTGCTGAATCCCCTGAGGGAGATGGGTGTCCAGGTGAAATCTGAGGATGGTGATCGTCTTCCGGTTACTCTGCGAGGCCCCAAGACCCCCACGCCAATCACGTACAGGGTTCCGATGGCGTCAGCACAGGTCAAGTCAGCGGTACTCCTGGCGGGCCTCAACACACCTGGAATCACAACCGTGATTGAACCCATCATGACTAGAGACCACACGGAGAAGATGTTGCAGGGTTTCGGCGCTAATCTAACGGTCGAAACCGACGCCGACGGCGTGAGGACAATCCGCTTGGAGGGCAGAGGTAAACTGACTGGCCAAGTCATCGATGTGCCTGGAGATCCCTCGTCCACAGCGTTTCCCCTCGTAGCTGCGTTGCTCGTCCCTGGATCTGATGTGACGATCCTGAATGTCCTCATGAATCCAACTAGAACCGGCCTCATCCTCACATTGCAGGAGATGGGTGCTGACATCGAGGTTATCAATCCTAGGTTGGCAGGTGGAGAGGATGTGGCCGATCTGCGCGTGCGTTCTAGTACACTCAAAGGCGTGACCGTCCCTGAGGATCGCGCTCCATCCATGATCGACGAGTACCCCATTCTCGCCGTTGCTGCTGCGTTTGCCGAGGGCGCAACTGTAATGAACGGCCTTGAGGAGTTGAGGGTTAAGGAGAGTGACAGGCTGTCCGCGGTGGCGAATGGCCTGAAGCTAAACGGCGTGGACTGCGACGAAGGTGAAACGTCCCTTGTAGTCCGTGGTCGCCCAGACGGGAAGGGGTTGGGGAATGCTTCGGGAGCTGCTGTGGCGACGCACCTTGATCATAGAATCGCCATGTCATTTCTGGTGATGGGACTTGTCTCCGAGAATCCGGTGACCGTTGACGATGCTACCATGATCGCCACCTCCTTTCCTGAGTTCATGGACCTCATGGCAGGCTTGGGGGCCAAGATCGAGCTGTCTGATACTAAGGCCGCTTGA |  |  |  | 938 (940) bps | higher percentage of plants with a single insert | increase in expression level
